Laboratory results published in US20240174755A1 (published 2024).
Blank lines part the entries; values can stand above or below the binder they belong to.

Key:
[1] = biological target: human PDGFR β on HEK293-PDGFR β cells (human) (UniProt P09619); assay: FACS, 1-10 nM VHH-HL488, 1 h
[2] = biological target: human PDGFR β on HEK293-PDGFR β cells (human) (UniProt P09619); assay: FACS dose response, 1 h at 37° C.
[3] = biological target: human PDGFR β on HEK293-PDGFR β cells (human) (UniProt P09619); assay: FACS dose response, dialyzed VHH-HL488 batch (data not shown)
[4] = biological target: T1, human EGFR/HER1/ErbB1 Protein (His Tag, Sino Biological; Cat. Number 10001-H08H) (human, UniProt P00533 25-645); assay: direct ELISA, EGFR coated, streptavidin-HRP detection
T1 construct: Bought; construct not described; not shown: His tag
Procedure: (§1) 96-well maxisorp (Nunc) immunosorp plates were coated with 2 ug/ml of human PDGFRa (Sino Biological; Cat. Number; 10556-HCCH) or 2 ug/ml human EGFR/HER1/ErbB1 Protein (His Tag, Sino Biological; Cat. Number; 10001-H08H) in PBS, 100 ul per well, at 4C overnight. Wells were washed thrice in PBS. Unspecific binding sites were blocked in 4% BSA/PBS for 1 h at RT, followed by washing thrice in PBS. VHH-biotin conjugates, diluted at 0.01-100 nM in 1% BSA/PBS, were incubated for 1 h at RT, followed by washing thrice in PBS. Streptavidin-horseradish peroxidase (HRP; GeneTex) was diluted 1:40,000 in 1% BSA/PBS and was incubated for 1 h at RT. PDGFRa or EGFR was detected with positive control antibodies rabbit anti-human PDGFRa/CD140a Antibody, (Cat no: 10556-R065) or rabbit anti-human EGFR/HER1/ErbB1 (Catalog no: 10001-R021, both from Sino Biological) diluted in 1% BSA/PBS at 1:5000 and were incubated for 1 h at RT, shaking. Secondary HRP-conjugated anti-rabbit-antibody was diluted at 1:5000 in 1% BSA/PBS and was incubated for 1 h at RT, shaking. Wells were washed 6 times in PBS. o-Phenylenediamine dihydrochloride (OPD; Sigma-Aldrich) was used as HRP substrate at 0.4 mg/ml in 0.05 M phosphate-citrate buffer pH 5.0 with 0.03% sodium perborate (Sigma-Aldrich), prepared according to the manufacturer's recommendations, and was used in volume of 100 ul per well. Reaction was allowed to proceed for 30 min at RT in dark, and was stopped by adding 50 ul of 1.5 M HCl. Optical density was measured at 492 nm on a Synergy H1 microplate reader (BioTek).

[5] = biological target: T2, human PDGFRa (Sino Biological; Cat. Number 10556-HCCH) (human, UniProt P16234 24-524, limits assumed); assay: direct ELISA, PDGFRa coated, streptavidin-HRP detection
T2 construct: Bought; construct not described; also called PDGFRα
Procedure: as §1
VHH-biotin binding to human PDGFRa was assessed using an ELISA, where wells were coated with PDGFRa, and VHH-biotin binding was detected using streptavidin-HRP with OPD as a substrate.

[6] = biological target: human PDGFR β ECD (U-protein Express, Utrecht) (human) (UniProt P09619); assay: dose response ELISA, PDGFR β ECD coated at 2 µg/ml, rabbit anti-VHH detection
[7] = biological target: human PDGFR β on HEK293-PDGFR β cells (human) (UniProt P09619); assay: time course on HEK293-PDGFRβ cells, plate reader
[8] = biological target: human PDGFR β on HEK293-PDGFR β cells (human) (UniProt P09619); assay: HEK293-PDGFRβ cells with 500 uM liposome, plate reader
[9] = biological target: human PDGFR β on HEK293-PDGFR β cells (human) (UniProt P09619); assay: HEK293-PDGFRβ cells with 500 uM liposome on ice, plate reader
[10] = biological target: human PDGFR β on HEK293-PDGFR β cells (human) (UniProt P09619); assay: HEK293-PDGFRβ cells with 500 uM liposome, plate reader (data not shown)
[11] = biological target: human PDGFR β on HEK293-PDGFR β cells (human) (UniProt P09619); assay: time course on HEK293-PDGFRβ cells, plate reader; not statistically significant
[12] = biological target: human PDGFR β on HEK293-PDGFR β cells (human) (UniProt P09619); assay: cell binding on ice for 1 h, fluorescence plate reader
[13] = biological target: T3, human PDGFR β extra-cellular domain (ECD), Fc- and His-tagged (Sino Biological) (human, UniProt P09619 33-532); assay: SPR (Biacore 3000), Fc/His PDGFR β ECD captured on protein A; 1B5 construct not stated
T3 construct: extracellular domain; Bought; also called hECD; Fc/His-tagged PDGFR β ECD; not shown: Fc tag and His tag
Procedure: FIG. 11: VHH (flag-his-tagged, or conjugated with HL488, NOTA or 800 CW) binding to human extracellular domain (ECD) of PDGFR β assessed with surface plasmon resonance (SPR). Fc/His-tagged PDGFR β ECD was bound to protein A chemically conjugated to CM4 sensor chip. Binding of VHHs was tested at 0.39-50 nM. Shown are representative SPR Biacore traces of tagged or conjugated 1B5 VHH (panels A); tagged or conjugated 1D4 VHH (panels B); tagged or conjugated 1H4 VHH (panels C) or tagged VHH 1E12 (panel D).
SPR analysis was performed using the Biacore 3000 instrument (GE Healthcare). Protein A was chemically bound to a CM4 sensor chip (GE Healthcare) according to the primary amine procedure to approximately 2100 response units (RU). Fc/His-tagged PDGFR β ECD at 0.4-2.07 ng/ul was bound to protein A at flow rate of 35 ul/min. Run buffer HBS-EP (GE Healthcare; 0.01 M HEPES pH 7.4, 0.15 M NaCl, 3 mM EDTA, 0.005% v/v Surfactant P20) was used for VHHs 1D4, 1H4 and 1E12 conjugates at 50, 25, 12.5, 6.25, 3.13, 1.56, 0.78 and 0.39 nM. For 1B5 conjugates, HBS-EP+0.5 M NaSCN was as run buffer to reduce non-specific binding to a control path without PDGFR β ECD. A flow rate 70 ul/min was used for VHH injections in volumes of 150 ul. Regeneration of the sensor CM4 chip was performed by three successive injections of c. 30 s 10 mM glycine-HCl pH 2, 10 mM glycine-HCl pH 1.5, and 0.5 M NaSCN/10 mM NaOH.

[14] = biological target: human PDGFR β on HEK293-PDGFR β cells (human) (UniProt P09619); assay: FACS dose response, 1 h at 37° C. (MFI)

- MFI at 4° C. (binding) as percent of MFI at 37° C. (binding and uptake) [1]: 53 to 61%
- detection limit [2]: 0.1 nM
- concentration at which detectable by FACS [3]: 1 nM
B1: 1D4-HL488 (VHH, not shown: small tags and cut ends)
VHH: EVQLVESGGGLVQAGDSLRLSCAVSGRAQSRDVVGWFRQAPGKEREFLALVTRSYSTYYGASVKGRFTISRDNAKNTVHLEMNSLKPEDTGVYYCAADQGFCSGSGCYDWRTFHVWGQGTQVTVSS
modifications: HiLyte Fluor 488-maleimide on the C-terminal cysteine of the C-Direct tag

- fold calcein fluorescence over liposome-0, 3 h (uptake) [7]: 4.7 fold
- fold calcein fluorescence over liposome-0, 6 h (uptake) [7]: 5.1 fold
- fold calcein fluorescence over non-targeted liposome-0, 37° C. (binding and uptake) [8]: 3.4 fold
- fold calcein fluorescence over non-targeted control, on ice (binding) [9]: 1.8 fold
- fold rhodamine PE signal, 37° C. [10]: 2.4 fold
- fold calcein fluorescence over liposome-0, 0 h (binding and/or uptake) [11]: 2.2 fold
- fold calcein fluorescence over liposome-0, 1 h (binding and/or uptake) [11]: 2.8 fold
B6: 1B5-liposome-100 (protein)
VHH: EVQLVESGGGLVQPGGSLRLSCVASGFSFSESAMSWVRQAPGKGLEWLSGISSGGGRSTTYAESVEGRFTISRDDAKNTLMLQMNSLKSEDTAVYYCAKTGYCSGYNCNFAPRGQGTQVTVSS
modifications: coupled to maleimide-PEG-DSPE and post-inserted into calcein/rhodamine PE liposomes; 100 nanobodies per liposome

- MFI at 4° C. (binding) as percent of MFI at 37° C. (binding and uptake) [1]: 52 to 58%
- detection limit [2]: 0.1 nM
- detection limit [12]: 1 nM
- concentration at which detectable by FACS [3]: 1 nM
B7: 1B5-HL488 (VHH, not shown: small tags and cut ends)
VHH: EVQLVESGGGLVQPGGSLRLSCVASGFSFSESAMSWVRQAPGKGLEWLSGISSGGGRSTTYAESVEGRFTISRDDAKNTLMLQMNSLKSEDTAVYYCAKTGYCSGYNCNFAPRGQGTQVTVSS
modifications: HiLyte Fluor 488-maleimide on the C-terminal cysteine of the C-Direct tag

- apparent affinity [6]: 10 nM
B9: QPD-1E12 (VHH)
VHH: EVQLVESGGGLVQAGGSLRLSCAPSERSFSAYLMGWFRQAQGKEREFVAAWRWPTSTTYYSDSGKGRFTITGDNAKNTVELEMNSLKPEDTAVYYCAARRGILYGPATSPTAYDFWGQGTQVTVSS

Second part, the binder before the results:

B2: 1D4-biotin (VHH)
VHH: EVQLVESGGGLVQAGDSLRLSCAVSGRAQSRDVVGWFRQAPGKEREFLALVTRSYSTYYGASVKGRFTISRDNAKNTVHLEMNSLKPEDTGVYYCAADQGFCSGSGCYDWRTFHVWGQGTQVTVSS
modifications: Biotin-maleimide on the C-terminal cysteine of the C-Direct tag
notes: ID NO: 27 or 28; also called biotin-conjugated 1D4; VHH-biotin; not shown: C-terminal C-Direct tag with a free cysteine and an EPEA purification tag (vector pYQVQ11)
- binding result [4]: no binding (tested: 0.01-100 nM)
- binding result [5]: no binding (tested: 0.01-100 nM)

B3: QPD-1H4 (VHH)
VHH: EVQLVESGGGLVQPGGSLRVSCSASWRTGNPFAMAWFRQAPGKERELIARISWTAGRTEYAESAKGRFTISRDVAKKTMYLQMNSLTPEDTGVYFCAARFVPSSGPTVFDTWGQGTQVTVSS
- apparent affinity [6]: < 1 nM

B4: 1H4-biotin (VHH)
VHH: EVQLVESGGGLVQPGGSLRVSCSASWRTGNPFAMAWFRQAPGKERELIARISWTAGRTEYAESAKGRFTISRDVAKKTMYLQMNSLTPEDTGVYFCAARFVPSSGPTVFDTWGQGTQVTVSS
modifications: Biotin-maleimide on the C-terminal cysteine of the C-Direct tag
notes: ID NO: 29 or 30; also called biotin-conjugated 1H4; VHH-biotin; not shown: C-terminal C-Direct tag with a free cysteine and an EPEA purification tag (vector pYQVQ11)
- binding result [4]: no binding (tested: 0.01-100 nM)
- binding result [5]: no binding (tested: 0.01-100 nM)

B5: 1H4-HL488 (VHH, not shown: small tags and cut ends)
VHH: EVQLVESGGGLVQPGGSLRVSCSASWRTGNPFAMAWFRQAPGKERELIARISWTAGRTEYAESAKGRFTISRDVAKKTMYLQMNSLTPEDTGVYFCAARFVPSSGPTVFDTWGQGTQVTVSS
modifications: HiLyte Fluor 488-maleimide on the C-terminal cysteine of the C-Direct tag
- MFI at 4° C. (binding) as percent of MFI at 37° C. (binding and uptake) [1]: 65 to 66%
- detection limit [2]: 0.1 nM
- concentration at which detectable by FACS [3]: 10 nM

B8: QPD-1B5 (VHH)
VHH: EVQLVESGGGLVQPGGSLRLSCVASGFSFSESAMSWVRQAPGKGLEWLSGISSGGGRSTTYAESVEGRFTISRDDAKNTLMLQMNSLKSEDTAVYYCAKTGYCSGYNCNFAPRGQGTQVTVSS
notes: Purified, unconjugated VHH; also called VHH 1B5
- apparent affinity [6]: 1 nM
- Kd [13]: 4 to 5 pM

B10: 1E12-HL488 (VHH, not shown: small tags and cut ends)
VHH: EVQLVESGGGLVQAGGSLRLSCAPSERSFSAYLMGWFRQAQGKEREFVAAWRWPTSTTYYSDSGKGRFTITGDNAKNTVELEMNSLKPEDTAVYYCAARRGILYGPATSPTAYDFWGQGTQVTVSS
modifications: HiLyte Fluor 488-maleimide on the C-terminal cysteine of the C-Direct tag
- lowest concentration detectably bound or taken up (percentage of HL488-positive population) [2]: 10 nM
- detection limit [14]: 100 nM
